According to article doi:10.64898/2025.12.22.695686:

Key:
[1] = target: Sgs3-MD (Sgs3 mucin domain repeat peptide) (Drosophila melanogaster)
[2] = target: Sgs1-MD (Sgs1 mucin domain repeat peptide) (Drosophila melanogaster)

Binder	KM for the acceptor peptide Sgs3-MD, Michaelis-Menten kinetics of O-glycosylation (UDP-Glo assay), fold against the corresponding Sgs1-MD parameter [1]	KM for the acceptor peptide Sgs1-MD, Michaelis-Menten kinetics of O-glycosylation (UDP-Glo assay), fold against PGANT5B^WT [2]	KM for the acceptor peptide Sgs1-MD, Michaelis-Menten kinetics of O-glycosylation (UDP-Glo assay), fold against PGANT5A^WT [2]	KM for the acceptor peptide Sgs1-MD, Michaelis-Menten kinetics of O-glycosylation (UDP-Glo assay), fold against PGANT5B^WT (fold decrease) [2]
PGANT5A^WT (amino acids 77–626) (enzyme) NEINTEKSLDGESGGALIMGQGFASGGISMTYPSVVLKKWFLAPSVQEAKGKPGEMGKPVKIPADMKDLMKEKFKENQFNLLASDMISLNRSLTDVRHEGCRRKHYASKLPTTSIVIVFHNEAWTTLLRTVWSVINRSPRALLKEIILVDDASERDFLGKQLEEYVAKLPVKTFVLRTEKRSGLIRARLLGAEHVSGEVITFLDAHCECTEGWLEPLLARIVQNRRTVVCPIIDVISDETFEYITASDSTWGGFNWKLNFRWYRVPSREMARRNNDRTAPLRTPTMAGGLFSIDKDYFYEIGSYDEGMDIWGGENLEMSFRIWQCGGILEIIPCSHVGHVFRDKSPYTFPGGVAKIVLHNAARVAEVWLDEWRDFYYSMSTGARKASAGDVSDRKALRDRLKCKSFRWYLENVYPESLMPLDYYYLGEIRNAETETCLDTMGRKYNEKVGISYCHGLGGNQVFAYTKRQQIMSDDLCLDASSSNGPVNMVRCHNMGGNQEWVYDAEEKWIRHTNTGQCLQRATRDDANTPLLRPCSYGKGQQWLMESKFK	10 fold lower	0.7 fold lower		
PGANT5A^D419K (amino acids 77–626) (enzyme) NEINTEKSLDGESGGALIMGQGFASGGISMTYPSVVLKKWFLAPSVQEAKGKPGEMGKPVKIPADMKDLMKEKFKENQFNLLASDMISLNRSLTDVRHEGCRRKHYASKLPTTSIVIVFHNEAWTTLLRTVWSVINRSPRALLKEIILVDDASERDFLGKQLEEYVAKLPVKTFVLRTEKRSGLIRARLLGAEHVSGEVITFLDAHCECTEGWLEPLLARIVQNRRTVVCPIIDVISDETFEYITASDSTWGGFNWKLNFRWYRVPSREMARRNNDRTAPLRTPTMAGGLFSIDKDYFYEIGSYDEGMDIWGGENLEMSFRIWQCGGILEIIPCSHVGHVFRKKSPYTFPGGVAKIVLHNAARVAEVWLDEWRDFYYSMSTGARKASAGDVSDRKALRDRLKCKSFRWYLENVYPESLMPLDYYYLGEIRNAETETCLDTMGRKYNEKVGISYCHGLGGNQVFAYTKRQQIMSDDLCLDASSSNGPVNMVRCHNMGGNQEWVYDAEEKWIRHTNTGQCLQRATRDDANTPLLRPCSYGKGQQWLMESKFK	10 fold lower		0.6 fold higher	

The remaining lines, values ahead:

KM for the acceptor peptide Sgs3-MD, Michaelis-Menten kinetics of O-glycosylation (UDP-Glo assay), fold against the corresponding Sgs1-MD parameter [1]	KM for the acceptor peptide Sgs1-MD, Michaelis-Menten kinetics of O-glycosylation (UDP-Glo assay), fold against PGANT5B^WT [2]	KM for the acceptor peptide Sgs1-MD, Michaelis-Menten kinetics of O-glycosylation (UDP-Glo assay), fold against PGANT5A^WT [2]	KM for the acceptor peptide Sgs1-MD, Michaelis-Menten kinetics of O-glycosylation (UDP-Glo assay), fold against PGANT5B^WT (fold decrease) [2]	Binder
10 fold lower			2	PGANT5B^K419D (amino acids 77–626) (enzyme) NEINTEKSLDGESGGALIMGQGFASGGISMTYPSVVLKKWFLAPSVQEAKGKPGEMGKPVKIPADMKDLMKEKFKENQFNLLASDMISLNRSLTDVRHEGCRRKHYASKLPTTSIVIVFHNEAWTTLLRTVWSVINRSPRALLKEIILVDDASERDFLGKQLEEYVAKLPVKTFVLRTEKRSGLIRARLLGAEHVSGEVITFLDAHCECTEGWLEPLLARIVQNRRTVVCPIIDVISDETFEYITASDSTWGGFNWKLNFRWYRVPSREMARRNNDRTAPLRTPTMAGGLFSIDKDYFYEIGSYDEGMDIWGGENLEMSFRVWMCGGVLEIAPCSRVGHVFRDSTPYTFPGGTTEIVNHNNARLVEVWLDDWKEFYYSFYPGARKASAGDVSDRKALRDRLKCKSFRWYLENVYPESLMPLDYYYLGEIRNAETETCLDTMGRKYNEKVGISYCHGLGGNQVFAYTKRQQIMSDDLCLDASSSNGPVNMVRCHNMGGNQEWVYDAEEKWIRHTNTGQCLQRATRDDANTPLLRPCSYGKGQQWLMESKFK
10 fold lower				PGANT5B^WT (amino acids 77–626) (enzyme) NEINTEKSLDGESGGALIMGQGFASGGISMTYPSVVLKKWFLAPSVQEAKGKPGEMGKPVKIPADMKDLMKEKFKENQFNLLASDMISLNRSLTDVRHEGCRRKHYASKLPTTSIVIVFHNEAWTTLLRTVWSVINRSPRALLKEIILVDDASERDFLGKQLEEYVAKLPVKTFVLRTEKRSGLIRARLLGAEHVSGEVITFLDAHCECTEGWLEPLLARIVQNRRTVVCPIIDVISDETFEYITASDSTWGGFNWKLNFRWYRVPSREMARRNNDRTAPLRTPTMAGGLFSIDKDYFYEIGSYDEGMDIWGGENLEMSFRVWMCGGVLEIAPCSRVGHVFRKSTPYTFPGGTTEIVNHNNARLVEVWLDDWKEFYYSFYPGARKASAGDVSDRKALRDRLKCKSFRWYLENVYPESLMPLDYYYLGEIRNAETETCLDTMGRKYNEKVGISYCHGLGGNQVFAYTKRQQIMSDDLCLDASSSNGPVNMVRCHNMGGNQEWVYDAEEKWIRHTNTGQCLQRATRDDANTPLLRPCSYGKGQQWLMESKFK
